# Measured values as given in the supplement of paper PMC10126150.
# ± gives the standard deviation of the averaged measurements.
# Test system: ATP
# Assay: switch fluorescence ratio, 500 uM ATP over buffer (Cy3 cluster intensity, sum of 5 cycles each) (fold (ratio)); higher = stronger signal-on switching upon ATP binding; sequences stand for … in TCGTCGGCAGCGTCAGATGTGTATAAGAGACAGTTTTTTTTTTTTTTTTTTTTTTTTT…TC
# Conditions: aptamer strand: ATP DNA aptamer (quencher-CACCTGGGGGAGTATTGCGGAGGAAGG + anchor), 100 nM annealed; ATP concentration: 500 uM
# Procedure, shortened: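 Exposure to 500 uM ATP lasted 15 min at 22 °C before imaging, and a selection-buffer image was taken beforehand, for Cy3-labelled switching-strand clusters on a modified Illumina MiSeq flow-cell annealed to 100 nM quencher-labelled ATP aptamer. Five buffer/ATP cycles were run with NaOH stripping and re-annealing between them. The fluorescence ratio per cluster is summed target-cycle over summed buffer-cycle Cy3 intensity, averaged per switch-domain sequence. Clusters outside 100-1000 RFU were excluded.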
row,Sequence,switch fluorescence ratio
1,CGGGGGGGAT,1.02 ± 0.026
2,CGGGGGGGCC,0.99 ± 0.042
3,CGGGGGGGGA,1.02 ± 0.035
4,CGGGGGGTCG,1.04 ± 0.069
5,CGGGGGGTG,1.01 ± 0.05
6,CGGGGGTATG,0.994 ± 0.034
7,CGGGGGTCGT,0.98794 ± 0.00054
8,CGGGGGTCTG,1.01 ± 0.028
9,CGGGGGTGGT,1.01 ± 0.033
10,CGGGGGTTAA,0.9908 ± 0.0021
11,CGGGGGTTCA,1.01 ± 0.035
12,CGGGGGTTGG,0.999 ± 0.025
13,CGGGGGTTTC,1.02 ± 0.023
14,CGGGGGTTTG,1.01 ± 0.031
15,CGGGGTAAAG,0.9787 ± 0.0032
16,CGGGGTACTT,1.06 ± 0.056
17,CGGGGTAGGG,0.983 ± 0.016
18,CGGGGTCAAT,1.85 ± 1.2
19,CGGGGTCATT,0.979 ± 0.011
20,CGGGGTCGGT,0.963 ± 0.021
21,CGGGGTGCGT,1.02 ± 0.037
22,CGGGGTGCTA,1.007 ± 0.0077
23,CGGGGTGGGG,0.993 ± 0.056
24,CGGGGTGTGG,1.01 ± 0.033
25,CGGGGTTACC,0.9924 ± 0.0059

row,Sequence,switch fluorescence ratio
1,CGGGGTTCGC,1.95 ± 1.3
2,CGGGGTTGTT,0.9882 ± 0.0067
3,CGGGTAAGCC,0.961 ± 0.027
4,CGGGTAAGGG,1.01 ± 0.04
5,CGGGTAAGTT,1.09 ± 0.2
6,CGGGTAATAG,1.46 ± 0.16
7,CGGGTACCAG,1.01 ± 0.043
8,CGGGTACGTG,1.02 ± 0.018
9,CGGGTAGCG,0.969 ± 0.013
10,CGGGTAGGGA,1.01 ± 0.022
11,CGGGTATGGC,1.02 ± 0.063
12,CGGGTATTTG,1.04 ± 0.028
13,CGGGTCCTAA,0.9795 ± 0.0078
14,CGGGTCGAAA,0.982 ± 0.049
15,CGGGTCTGCT,0.985 ± 0.022
16,CGGGTGCAAA,1.08 ± 0.016
17,CGGGTGCGGT,0.951 ± 0.045
18,CGGGTGGGG,1.03 ± 0.071
19,CGGGTGGTGG,0.99 ± 0.017
20,CGGGTGTGAC,1.02 ± 0.023
21,CGGGTGTGGG,1.009 ± 0.0012
22,CGGGTTACGG,0.9728 ± 0.0055
23,CGGGTTAGAG,0.968 ± 0.019
24,CGGGTTGGTT,1.032 ± 0.0056
25,CGGGTTGTAG,1 ± 0.036

row,Sequence,switch fluorescence ratio
1,CGGGTTGTCA,0.9969 ± 0.0072
2,CGGGTTGTCG,1.02 ± 0.05
3,CGGGTTTACG,1 ± 0.025
4,CGGTAAACAC,1.06 ± 0.047
5,CGGTAACCTT,1.31 ± 0.44
6,CGGTAACTAT,1.02 ± 0.017
7,CGGTAAGGGC,0.966 ± 0.038
8,CGGTAATTGG,1.01 ± 0.02
9,CGGTACGGGG,0.979 ± 0.018
10,CGGTACTATA,1.055 ± 0.0086
11,CGGTAGAGTA,0.98 ± 0.062
12,CGGTAGATGT,1 ± 0.034
13,CGGTAGCTCT,0.989 ± 0.037
14,CGGTAGGAAC,1.01 ± 0.028
15,CGGTAGGCTT,0.996 ± 0.037
16,CGGTAGTGAG,1.04 ± 0.014
17,CGGTAGTTGG,0.983 ± 0.019
18,CGGTATAACT,1 ± 0.011
19,CGGTATAGTA,0.983 ± 0.032
20,CGGTATCTAT,0.96436 ± 0.00057
21,CGGTATGTAT,1.02 ± 0.042
22,CGGTCGGGGT,0.995 ± 0.045
23,CGGTCGGGTA,1.01 ± 0.031
24,CGGTCGGGTC,1.01 ± 0.028
25,CGGTCGTAAC,1.04 ± 0.018

row,Sequence,switch fluorescence ratio
1,CGGTCTGGTC,0.987 ± 0.018
2,CGGTCTGTTA,1.04 ± 0.11
3,CGGTCTTGGG,0.9536 ± 0.0085
4,CGGTGAAGAA,0.989 ± 0.013
5,CGGTGAATCT,1.01 ± 0.03
6,CGGTGACGGG,0.959 ± 0.014
7,CGGTGACTTG,1.01 ± 0.017
8,CGGTGATCGT,1.02 ± 0.015
9,CGGTGATGGG,1.01 ± 0.031
10,CGGTGATTTT,1.02 ± 0.03
11,CGGTGCATGA,1.027 ± 0.0092
12,CGGTGCGCTG,0.9964 ± 0.0016
13,CGGTGCGGGA,1.01 ± 0.011
14,CGGTGGACGA,0.9977 ± 0.005
15,CGGTGGACTG,1.07 ± 0.014
16,CGGTGGCAGC,0.983 ± 0.038
17,CGGTGGGCGC,0.974 ± 0.091
18,CGGTGGTGGC,1.13 ± 0.015
19,CGGTGTACTG,0.992 ± 0.013
20,CGGTGTAGGG,0.99 ± 0.03
21,CGGTGTAGTC,1.012 ± 0.01
22,CGGTGTGACA,0.993 ± 0.051
23,CGGTGTGGGA,0.996 ± 0.044
24,CGGTGTGGGT,1.03 ± 0.0023
25,CGGTGTTGGA,0.978 ± 0.039

row,Sequence,switch fluorescence ratio
1,CGGTTAAACG,0.975 ± 0.019
2,CGGTTAAGAT,0.993 ± 0.012
3,CGGTTACATT,1 ± 0.014
4,CGGTTACCAG,1.03 ± 0.013
5,CGGTTAGATG,1 ± 0.047
6,CGGTTAGGGG,0.9829 ± 0.0021
7,CGGTTAGTTT,0.97 ± 0.034
8,CGGTTATAAG,0.9679 ± 0.00054
9,CGGTTATCTA,1.01 ± 0.054
10,CGGTTATTGG,0.958 ± 0.041
11,CGGTTCAGTT,1.036 ± 0.0022
12,CGGTTCCTAA,0.994 ± 0.016
13,CGGTTGATGG,0.969 ± 0.074
14,CGGTTGGCGA,1.02 ± 0.011
15,CGGTTGTGAC,0.994 ± 0.027
16,CGGTTGTTGG,0.9787 ± 0.0058
17,CGGTTTATAA,0.981 ± 0.013
18,CGGTTTCAGT,0.996 ± 0.023
19,CGGTTTCGTG,0.995 ± 0.018
20,CGGTTTTATC,1.01 ± 0.034
21,CGGTTTTCAT,0.984 ± 0.019
22,CGGTTTTTT,1 ± 0.021
23,CGTAAAAAT,1.01 ± 0.027
24,CGTAAAAATG,1.01 ± 0.024
25,CGTAAAATTT,1.05 ± 0.12

row,Sequence,switch fluorescence ratio
1,CGTAAACGCT,1.04 ± 0.024
2,CGTAAACTAG,0.97 ± 0.016
3,CGTAAAGCCT,0.991 ± 0.02
4,CGTAAAGGAG,0.992 ± 0.052
5,CGTAACTGTT,0.995 ± 0.091
6,CGTAACTTGG,1.01 ± 0.029
7,CGTAATGCTT,1.17 ± 0.032
8,CGTAATGGGA,1.04 ± 0.025
9,CGTAATTTCT,1.06 ± 0.038
10,CGTAATTTTA,1.01 ± 0.027
11,CGTACCGGGT,1.01 ± 0.022
12,CGTACGGCAG,0.9978 ± 0.0052
13,CGTACTCCTT,1.12 ± 0.025
14,CGTACTTAGC,1.069 ± 0.0034
15,CGTAGAGAAA,0.991 ± 0.044
16,CGTAGCTAGA,1.89 ± 0.047
17,CGTAGGAGTC,0.963 ± 0.15
18,CGTAGGCCGA,0.952 ± 0.068
19,CGTAGGTATG,0.983 ± 0.023
20,CGTAGTAAAT,1.062 ± 0.0087
21,CGTAGTATAT,1.25 ± 0.043
22,CGTATAAGTT,0.937 ± 0.018
23,CGTATCAGGG,1.01 ± 0.032
24,CGTATGAAAT,0.9985 ± 0.0089
25,CGTATGAGGG,0.9679 ± 0.0066

row,Sequence,switch fluorescence ratio
1,CGTATGGTTG,1.06 ± 0.09
2,CGTATTAGAG,1.01 ± 0.048
3,CGTATTAGCG,0.952 ± 0.025
4,CGTATTATAA,1.01 ± 0.023
5,CGTATTCTAG,1 ± 0.023
6,CGTATTTTGG,0.986 ± 0.032
7,CGTCAATCT,1.53 ± 0.061
8,CGTCAGGCTT,0.987 ± 0.052
9,CGTCATATGG,1.07 ± 0.012
10,CGTCATCGGG,0.973 ± 0.029
11,CGTCATGCGT,0.964 ± 0.025
12,CGTCATTTAC,1.63 ± 0.074
13,CGTCATTTGG,0.9769 ± 0.0044
14,CGTCCAGTTC,1.08 ± 0.023
15,CGTCCCCGAG,1.054 ± 0.0087
16,CGTCCTAGGG,1.04 ± 0.043
17,CGTCGAGGCG,0.971 ± 0.035
18,CGTCGGAAAG,1.01 ± 0.024
19,CGTCGGAGTC,1.04 ± 0.031
20,CGTCGGGGG,0.982 ± 0.044
21,CGTCGGGGGA,1.01 ± 0.027
22,CGTCGGGGGC,1.005 ± 0.0096
23,CGTCGTGACA,1.03 ± 0.029
24,CGTCTAGTCG,1 ± 0.025
25,CGTCTATTTG,0.993 ± 0.023

row,Sequence,switch fluorescence ratio
1,CGTCTCGAAC,1 ± 0.014
2,CGTCTCTTAG,0.995 ± 0.027
3,CGTCTGATTG,1.01 ± 0.025
4,CGTCTGGCGA,1.02 ± 0.014
5,CGTCTTGGAA,1.01 ± 0.013
6,CGTGACCGCC,1.08 ± 0.028
7,CGTGACCGGA,0.972 ± 0.014
8,CGTGACCTGT,0.996 ± 0.022
9,CGTGAGGCAG,0.978 ± 0.056
10,CGTGAGGGGC,1.028 ± 0.01
11,CGTGATGATG,0.982 ± 0.06
12,CGTGCATTGA,1.03 ± 0.022
13,CGTGCTGGTG,1.03 ± 0.022
14,CGTGCTTAGT,1.02 ± 0.022
15,CGTGGAGAGC,1.06 ± 0.043
16,CGTGGGATAG,1.04 ± 0.036
17,CGTGGGATTG,1.012 ± 0.004
18,CGTGGGGCAG,1.01 ± 0.024
19,CGTGGGGGGT,1.01 ± 0.018
20,CGTGGGGTTG,1.01 ± 0.054
21,CGTGGGTCTT,1.04 ± 0.03
22,CGTGGTATCA,0.982 ± 0.077
23,CGTGGTCATC,0.9766 ± 0.0073
24,CGTGGTCGTC,0.991 ± 0.03
25,CGTGGTCGTG,0.9672 ± 0.00049
